Test results reported in US20150259425A1 (AbbVie / Abbott, published 2015).
One block for each binder: values may come before it.

Columns and labels:
recombinant human CD16a [1] = target: T1, recombinant human CD16a (human, UniProt P08637 17-208, limits assumed); assay: AlphaScreen, recombinant human CD16a; high glycine batch against control batch
T1 construct: Recombinant human CD16a solution used in the AlphaScreen assay; also called CD16a receptor; human CD16a receptor
Method: (§1) A CD16a binding assay was performed using AlphaScreen (PerkinElmer) method to assess the binding potency of the antibody Fc region of four different antibodies to human CD16a receptor. The antibody solution was first mixed with a recombinant human CD16a solution and assay buffer, and then Alphascreen donor beads and antibody acceptor beads were added. The mixture was incubated in a light protected location for 4 hours at room temperature and the fluorescent signal was detected using a plate reader with laser excitation at 680 nm and light emission 520-620 nm. The binding potency relative to the antibody reference cultured in a basal medium without excess glycine was reported.

recombinant human CD16a [2] = target: T1, recombinant human CD16a; assay: AlphaScreen, recombinant human CD16a in solution; batch: 2 L control medium
Method: as §1

recombinant human CD16a [3] = target: T1, recombinant human CD16a; assay: AlphaScreen, recombinant human CD16a in solution; batch: 2 L with extra glycine
Method: as §1

recombinant human CD16a [4] = target: T1, recombinant human CD16a; assay: AlphaScreen, recombinant human CD16a in solution; batch: 100 L control medium
Method: as §1

recombinant human CD16a [5] = target: T1, recombinant human CD16a; assay: AlphaScreen, recombinant human CD16a in solution; dose response study, batch: 2 L with extra 5 mM glycine
Method: as §1

recombinant human CD16a [6] = target: T1, recombinant human CD16a; assay: AlphaScreen, recombinant human CD16a in solution; batch: 50 L with extra glycine
Method: as §1

recombinant human CD16a [7] = target: T1, recombinant human CD16a; assay: AlphaScreen, recombinant human CD16a in solution; batch: 1 kL control (GMP)
Method: as §1

recombinant human CD16a [8] = target: T1, recombinant human CD16a; assay: AlphaScreen, recombinant human CD16a in solution; batch: 1 kL control medium
Method: as §1

recombinant human CD16a [9] = target: T1, recombinant human CD16a; assay: AlphaScreen, recombinant human CD16a in solution; dose response study, batch: 2 L control (2 mM glycine)
Method: as §1

recombinant human CD16a [10] = target: T1, recombinant human CD16a; assay: AlphaScreen, recombinant human CD16a in solution; dose response study, batch: 2 L with extra 15 mM glycine
Method: as §1

recombinant human CD16a [11] = target: T1, recombinant human CD16a; assay: AlphaScreen, recombinant human CD16a in solution; dose response study, batch: 2 L with extra 30 mM glycine
Method: as §1

recombinant human CD16a [12] = target: T1, recombinant human CD16a; assay: AlphaScreen, recombinant human CD16a in solution; batch: 1 kL with extra glycine
Method: as §1

recombinant human CD16a [13] = target: T1, recombinant human CD16a; assay: AlphaScreen, recombinant human CD16a in solution; batch: 100 L with extra glycine
Method: as §1

recombinant human CD16a [14] = target: T1, recombinant human CD16a; assay: AlphaScreen, recombinant human CD16a in solution; batch: 250 L control medium
Method: as §1

B1: daclizumab (antibody, human IgG1, kappa)
heavy: not shown
light: DIQMTQSPSTLSASVGDRVTITCSASSSISYMHWYQQKPGKAPKLLIYTTSNLASGVPARFSGSGSGTEFTLTISSLQPDDFATYYCHQRSTYPLTFGSGTKVEVKRTVAAPSVFIFPPSDEQLKSGTASVVCLLNNFYPREAKVQWKVDNALQSGNSQESVTEQDSKDSTYSLSSTLTLSKADYEKHKVYACEVTHQGLSSPVTKSFNR
modifications: N-linked glycans; the share of non-fucosylated glycoforms differs between batches
notes: Humanized IgG1 to CD25, made in NS0 cells; the entries may be incomplete; also called DAC HYP
increase in binding affinity relative to the control antibody (basal medium, 2 mM glycine) (recombinant human CD16a [1]): 40 % increase | CD16a Binding Relative to Reference (recombinant human CD16a [2]): 69% | CD16a Binding Relative to Reference (recombinant human CD16a [3]): 137%

B3: elotuzumab (antibody, human IgG1, kappa)
heavy: not shown
light: DIQMTQSPSSLSASVGDRVTITCKASQDVGIAVAWYQQKPGKVPKLLIYWASTRHTGVPDRFSGSGSGTDFTLTISSLQPEDVATYYCQQYSSYPYTFGQGTKVEIKRTVAAPSVFIFPPSDEQLKSGTASVVCLLNNFYPREAKVQWKVDNALQSGNSQESVTEQDSKDSTYSLSSTLTLSKADYEKHKVYACEVTHQGLSSPVTKSFNRGEC
modifications: N-linked glycans; the share of non-fucosylated glycoforms differs between batches (control vs high glycine medium)
notes: IgG1 made in NS0 cells; also called HuLuc63; HuLuc 63
CD16a Binding Relative to Reference (recombinant human CD16a [12]): 146% | CD16a Binding Relative to Reference (recombinant human CD16a [8]): 100% | increase in binding affinity relative to the control antibody (basal medium, 2 mM glycine) (recombinant human CD16a [1]): 40 % increase | CD16a Binding Relative to Reference (recombinant human CD16a [13]): 128%

Second part, the binder after the results:

CD16a Binding Relative to Reference (recombinant human CD16a [4]): 110% | CD16a Binding Relative to Reference (recombinant human CD16a [5]): 146 relative to Reference (no unit printed; percent as in Table 15) | CD16a Binding Relative to Reference (recombinant human CD16a [6]): 136% | CD16a Binding Relative to Reference (recombinant human CD16a [7]): 65% | CD16a Binding Relative to Reference (recombinant human CD16a [8]): 96% | CD16a Binding Relative to Reference (recombinant human CD16a [9]): 130 relative to Reference (no unit printed; percent as in Table 15) | increase in binding affinity relative to the control antibody (basal medium, 2 mM glycine) (recombinant human CD16a [1]): 40 % increase | CD16a Binding Relative to Reference (recombinant human CD16a [10]): 151 relative to Reference (no unit printed; percent as in Table 15) | CD16a Binding Relative to Reference (recombinant human CD16a [11]): 144 relative to Reference (no unit printed; percent as in Table 15)
B2: enavatuzumab (antibody, human IgG1, kappa)
heavy: not shown
light: DIQMTQSPSSLSASVGDRVTITCRASQSVSTSSYSYMHWYQQKPGKAPKLLIKYASNLESGVPSRFSGSGSGTDFTLTISSLQPEDFATYYCQHSWEIPYTFGGGTKVEIKRTVAAPSVFIFPPSDEQLKSGTASVVCLLNNFYPREAKVQWKVDNALQSGNSQESVTEQDSKDSTYSLSSTLTLSKADYEKHKVYACEVTHQGLSSPVTKSFNRGEC
modifications: N-linked glycans; the share of non-fucosylated glycoforms differs between batches
notes: Humanized IgG1 to TweakR, made in NS0 cells; Batches differ only in glycoforms; also called PDL192

increase in binding affinity relative to the control antibody (basal medium, 2 mM glycine) (recombinant human CD16a [1]): 40 % increase | CD16a Binding Relative to Reference (recombinant human CD16a [13]): 137% | CD16a Binding Relative to Reference (recombinant human CD16a [2]): 147% | CD16a Binding Relative to Reference (recombinant human CD16a [14]): 100% | CD16a Binding Relative to Reference (recombinant human CD16a [3]): 277%
B4: PDL241 (antibody, human IgG1, kappa)
heavy: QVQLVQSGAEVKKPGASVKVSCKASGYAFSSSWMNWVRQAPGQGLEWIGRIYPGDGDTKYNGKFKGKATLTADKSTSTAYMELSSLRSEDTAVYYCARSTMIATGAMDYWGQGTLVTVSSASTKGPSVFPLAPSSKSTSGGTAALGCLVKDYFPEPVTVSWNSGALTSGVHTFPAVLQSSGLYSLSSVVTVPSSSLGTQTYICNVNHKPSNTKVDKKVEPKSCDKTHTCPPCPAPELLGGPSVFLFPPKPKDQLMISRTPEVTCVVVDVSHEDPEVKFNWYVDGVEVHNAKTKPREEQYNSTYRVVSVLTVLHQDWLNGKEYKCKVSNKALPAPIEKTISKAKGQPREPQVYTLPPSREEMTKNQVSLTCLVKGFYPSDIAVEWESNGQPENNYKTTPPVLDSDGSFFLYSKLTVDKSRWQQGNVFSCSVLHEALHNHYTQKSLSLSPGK
light: DIQMTQSPSSLSASVGDRVTITCKASQDVSTAVAWYQQKPGKAPKLLIYSASYRYTGVPDRFTGSGSGTDFTLTISSLQPEDFATYYCQQHYSTPPYTFGGGTKVEIKRTVAAPSVFIFPPSDEQLKSGTASVVCLLNNFYPREAKVQWKVDNALQSGNSQESVTEQDSKDSTYSLSSTLTLSKADYEKHKVYACEVTHQGLSSPVTKSFNRGEC
modifications: N-linked glycans; the share of non-fucosylated glycoforms differs between batches
notes: Humanized IgG1 to CS1, made in NS0 cells; Batches differ only in glycoforms
